Measured values: article doi:10.1101/2024.04.26.590571

Target: NB-protein (BchN-BchB α2β2 heterotetramer), electron acceptor component of Rhodobacter sphaeroides DPOR (Rhodobacter sphaeroides)
Assay: cryo-EM structure

Chain of L-protein (BchL homodimer), electron donor component of Rhodobacter sphaeroides DPOR (Q9RFD6 whole entry): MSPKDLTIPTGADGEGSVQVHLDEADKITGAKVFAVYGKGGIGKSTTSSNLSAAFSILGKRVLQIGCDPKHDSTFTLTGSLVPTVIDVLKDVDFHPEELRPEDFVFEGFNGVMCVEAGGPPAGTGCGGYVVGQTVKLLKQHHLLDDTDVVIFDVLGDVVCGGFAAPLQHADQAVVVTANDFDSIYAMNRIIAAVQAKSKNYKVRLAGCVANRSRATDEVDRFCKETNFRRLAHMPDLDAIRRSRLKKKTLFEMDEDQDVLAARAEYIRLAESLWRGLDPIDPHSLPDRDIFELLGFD

stoichiometry N (L-protein dimer per NB-protein tetramer): 1
stoichiometry N (L-protein dimers per NB-protein tetramer): 2
Substance: L-protein (BchL homodimer), electron donor component of Rhodobacter sphaeroides DPOR (from UniProt Q9RFD6 1-297) (enzyme)
